In paper PMC13198613:

Target: N1-MPP (recombinant neuraminidase: N1 globular head domain from A/Michigan/45/2015 (H1N1) fused to the measles virus phosphoprotein tetramerization domain, with hexahistidine tag) (measles virus | influenza A virus A/Michigan/45/2015 (H1N1))
Experiment: SEC; […], pH 7.5, 0.4 mL/min, room temperature; […]

With “N1-MPP (recombinant neuraminidase: N1 globular head domain from A/Michigan/45/2015 (H1N1) fused to the measles virus phosphoprotein tetramerization domain, with hexahistidine tag) (enzyme)” as the substance, how does the stoichiometry N read?
Its stoichiometry N is 4.
